The values below come from paper PMC2747011, “Soybean GmPHD-Type Transcription Regulators Improve Stress Tolerance in Transgenic Arabidopsis Plants”.

Details in all cases: protein: recombinant; tags: GST (N-term, pGEX-4T-1); strand 1 has 5' overhang AATT (4 nt) and 3' overhang AGCT (4 nt); strand 2 fully paired
One series concerns the target T1, GmPHD4 N domain (Glycine max, UniProt I1M961 1-114).
T1 sequence: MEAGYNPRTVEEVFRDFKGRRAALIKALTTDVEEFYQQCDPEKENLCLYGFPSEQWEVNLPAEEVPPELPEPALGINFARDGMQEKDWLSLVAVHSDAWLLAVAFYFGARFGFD
The experiment in a line: EMSA; strong; Binding buffer not given (EMSA as in ref. 59); probe annealed in 50 mM NaCl; competitor in ten-fold excess. For orientation: A gel shift assay detects complexes by their altered migration in electrophoresis.

In the next series the target is T2, GST-GmPHD6 (Glycine max, UniProt I1L1N8 1-248).
T2 sequence: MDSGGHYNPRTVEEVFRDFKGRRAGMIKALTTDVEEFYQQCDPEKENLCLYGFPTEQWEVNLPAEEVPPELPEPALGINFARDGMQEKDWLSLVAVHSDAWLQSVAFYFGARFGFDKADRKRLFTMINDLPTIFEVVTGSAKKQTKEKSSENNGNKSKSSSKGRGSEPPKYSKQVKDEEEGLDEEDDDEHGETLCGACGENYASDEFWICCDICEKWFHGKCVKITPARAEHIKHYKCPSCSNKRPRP
The experiment in a line: EMSA; reduced by 10x unlabeled probe; Binding buffer not given (EMSA as in ref. 59); probe annealed in 50 mM NaCl; competitor in ten-fold excess.

The next series deals with T3, GST-GmPHD5 (Glycine max, UniProt Q06A75 1-252).
T3 sequence: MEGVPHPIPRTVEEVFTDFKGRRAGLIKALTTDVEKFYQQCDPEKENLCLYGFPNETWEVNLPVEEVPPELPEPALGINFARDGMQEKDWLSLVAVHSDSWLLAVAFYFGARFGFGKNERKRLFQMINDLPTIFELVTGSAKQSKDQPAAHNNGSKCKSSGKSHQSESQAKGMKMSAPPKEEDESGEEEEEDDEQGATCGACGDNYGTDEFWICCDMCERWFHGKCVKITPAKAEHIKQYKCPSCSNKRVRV
The series is described as above.

For the next series, the target named is T4, GmPHD4 NV (Glycine max, UniProt I1M961 1-199).
T4 sequence: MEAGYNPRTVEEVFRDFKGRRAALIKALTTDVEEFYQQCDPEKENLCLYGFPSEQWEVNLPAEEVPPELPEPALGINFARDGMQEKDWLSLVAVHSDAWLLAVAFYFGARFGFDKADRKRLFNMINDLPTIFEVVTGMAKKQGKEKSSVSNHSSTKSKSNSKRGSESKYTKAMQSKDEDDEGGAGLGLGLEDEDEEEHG
The experiment in a line: EMSA; Binding buffer not given (EMSA as in ref. 59); probe annealed in 50 mM NaCl; competitor in ten-fold excess.

B1: 5x GTGGAG probe (dsDNA)
DNA 1: AATTCGGATCCGTGGAGGTGGAGGTGGAGGTGGAGGTGGAGGGTACCGAGCT
DNA 2: CGGTACCCTCCACCTCCACCTCCACCTCCACCTCCACGGATCCG
Consider B1, for which the binding result with GmPHD4 N domain was “binds”; in the series with GST-GmPHD6, “binds”; with GST-GmPHD5, “binds”; with GmPHD4 NV it was “no binding”.
